Test results taken from paper PMC2819690.

Legend:
[1] = biological target: ΔN complex (Syb49–96:SyxH3:SNAP-25) (rat) (UniProt P63045); test: fluorescence polarisation
[2] = biological target: ΔN complex (Syb49–96:SyxH3:SNAP-25) (rat) (UniProt P63045); test: ITC

## Syb1–96 V39A, V42A, S28C, labeled (from UniProt P63045 1-96) (domain or fragment)
[1]
  kon: 263000 M⁻¹ s⁻¹

## Syb F77A (from UniProt P63045 1-96) (domain or fragment)
[2]
  Kd: 0.8 nM
  dH: -18.8 kcal/mol
